Assay results published in article PMC9977887, “Crocodile defensin (CpoBD13) antifungal activity via pH-dependent phospholipid targeting and membrane disruption” (Nature Communications, 2023).
Like-named read-outs stand apart in the source and are kept apart here. Where no end group is shown, it is not given here.

Assays:
[1] = system: C. albicans ATCC 10231; experiment: Fungal growth inhibition assay; type: cell-based, Candida albicans
Method: (§1) For fungal growth assays, overnight cultures of C. albicans ATCC 10231 cells (yeast peptone dextrose broth, 30°C, shaking at 160 rpm) were pelleted (2000 g, 5 min), washed once in 0.5× potato dextrose broth (BD Biosciences, Franklin Lakes, NJ) and finally resuspended in the same media. Cells were seeded onto a 96-well plate (400 cells, 50 µL) and treated with an equal volume of varying concentrations of defensin in 0.5× potato dextrose broth. After incubating the samples (24 h, 30 °C), the plates were shaken to distribute the cells and growth was determined by performing a 9-well scan (600 nm) using a Spectramax M5e microplate reader (Molecular Devices, San Jose, CA). For assays testing defensin salt tolerance, C. albicans cells were instead resuspended in 1x potato dextrose broth and treated with an equal volume of CpoBD13 + NaCl solution at their intended concentrations. Propidium iodide (PI) uptake assays were performed by preparing the cells as per the standard growth inhibition assay however they were instead seeded onto a U-bottom 96-well plate (50,000 cells, 25 µL). […] For PI uptake experiments performed at a specific pH, the same method was followed with the exception that cells were resuspended in 1× potato dextrose broth while defensin titrations were diluted in 40 mM MES buffer at the intended pH. An example PI uptake gating strategy is presented in Supplementary Fig. 1d.

[2] = system: C. albicans ATCC 10231; experiment: Propidium iodide uptake assay in pH-buffered conditions (MES buffer); type: cell-based, Candida albicans; settings: 30 min
Method: as §1

[3] = system: HeLa cells; experiment: MTT/MTS cell viability assay; type: cell-based, human; settings: 48 h, at the assessed concentrations
Excerpt: (§2) Human epithelial cervical cancer (HeLa, ATCC, CCL-2), prostate cancer (PC3, ATCC, CRL-1435) and histiocytic lymphoma (U937, ATCC, CRL-1593.2) cells were obtained from the American Type Culture Collection (Gaithersburg, Maryland) and cultured in RPMI-1640 medium (Thermo Fisher Scientific, Waltham, MA) supplemented with 5–10% (v/v) foetal bovine serum (FBS), 100 U/mL penicillin and 100 U/mL streptomycin (Invitrogen, Carlsbad, CA). Adult human dermal fibroblasts (AHDF, Lonza, CC-2511) cells were obtained from Lonza (Basel, Switzerland) and cultured in Dulbecco’s Modified Eagle Medium (DMEM) (Thermo Fisher Scientific) supplemented with 10% (v/v) FBS, 100 U/mL penicillin and 100 U/mL streptomycin. Human umbilical vein epithelial (HUVEC, Lonza, CC-2519) cells were obtained from Lonza and cultured in EBM-2 medium supplemented with EGM-2 SingleQuots (Lonza). All cell lines were maintained at 37 °C in a humidified incubator with 5% CO2.
(§3) Cell viability assays were performed using MTT/MTS as previously described[8].

[4] = system: PC3 cells; experiment: MTT/MTS cell viability assay; type: cell-based, human; settings: 48 h, at the assessed concentrations
Excerpt: as §2, §3

[5] = system: U937 cells; experiment: MTT/MTS cell viability assay; type: cell-based, human; settings: 48 h, at the assessed concentrations
Excerpt: as §2, §3

[6] = system: U937 cells; experiment: Propidium iodide uptake assay in serum-free medium; type: cell-based, human
Method: For propidium iodide uptake assays in serum-free medium, U937 cells (after centrifugation at 300 g, 5 min) were washed once in serum-free RPMI-1640, pelleted again (as previous centrifugation) and resuspended in serum-free media. […] PI (diluted in ice-cold PBS) was added to a final concentration of 1 µg/mL before analysis by flow cytometry using a BD FACSCanto II with FACSDiva 8.0.1 (BD Biosciences).

[7] = system: C. albicans ATCC 10231; experiment: Fungal growth inhibition assay, salt tolerance (NaCl); type: cell-based, Candida albicans; settings: NaCl concentrations of 100 mM; 24 h
Method: as §1

[8] = system: AHDF cells
Excerpt: as §2, §3

[9] = system: HUVEC cells
Excerpt: as §2, §3

CpoBD13: saltwater crocodile β-defensin 13, histidine-rich, three disulphide bonds, recombinantly expressed in Pichia pastoris (NGSYYSTLQCRNNHGHCRRLCFHGEQWIGNCNGRHQHCCK; disulfide (positions not given here); also: three disulphide bonds, pairings not given here)
IC50 ([1]; 24 h, Replicate 1, unit not in table, µM, read-out: IC50): 4.19 µM
IC50 ([1]; 24 h, Replicate 2, unit not in table, µM, read-out: IC50): 4.11 µM
IC50 ([1]; 24 h, Replicate 3, unit not in table, µM, read-out: IC50): 4.1 µM
IC50 ([1]; 24 h, mean, n = 3, assessed range 0–10 µM, read-out: IC50 of fungal growth inhibition): 4.1 µM
IC50 ([1]; Replicate 1, read-out: IC50): 5.39 µM
IC50 ([1]; Replicate 2, read-out: IC50): 5.34 µM
IC50 ([1]; Replicate 3, read-out: IC50): 5.46 µM
membrane permeabilising activity ([2]; pH 5.5): highly effective
membrane permeabilising activity ([2]; pH 6.5): significantly reduced
membrane permeabilising activity ([2]; pH 7.5): most dramatic loss of activity
effect on cell viability [3]: did not affect the viability
effect on cell viability [4]: did not affect the viability
effect on cell viability [5]: did not affect the viability
PI positivity (%) ([6]; 1.5625 μM CpoBD13, replicate 1): 3.27%
PI positivity (%) ([6]; 1.5625 μM CpoBD13, replicate 2): 9.7%
PI positivity (%) ([6]; 1.5625 μM CpoBD13, replicate 3): 3.5%
PI positivity (%) ([6]; 3.125 μM CpoBD13, replicate 1): 2.47%
PI positivity (%) ([6]; 3.125 μM CpoBD13, replicate 2): 6.8%
PI positivity (%) ([6]; 3.125 μM CpoBD13, replicate 3): 4.1%
PI positivity (%) ([6]; 6.25 μM CpoBD13, replicate 1): 1.67%
PI positivity (%) ([6]; 6.25 μM CpoBD13, replicate 2): 10.8%
PI positivity (%) ([6]; 6.25 μM CpoBD13, replicate 3): 1%
PI positivity (%) ([6]; 12.5 μM CpoBD13, replicate 1): 3.27%
PI positivity (%) ([6]; 12.5 μM CpoBD13, replicate 2): 9.1%
PI positivity (%) ([6]; 12.5 μM CpoBD13, replicate 3): 14.3%
PI positivity (%) ([6]; 25 μM CpoBD13, replicate 1): 2.27%
PI positivity (%) ([6]; 25 μM CpoBD13, replicate 2): 13.1%
PI positivity (%) ([6]; 25 μM CpoBD13, replicate 3): 14.3%
PI positivity (%) ([6]; 50 μM CpoBD13, replicate 1): 2.77%
PI positivity (%) ([6]; 50 μM CpoBD13, replicate 2): 20.5%
PI positivity (%) ([6]; 50 μM CpoBD13, replicate 3): 18.6%
PI positivity (%) ([6]; 100 μM CpoBD13, replicate 1): 15.77%
PI positivity (%) ([6]; 100 μM CpoBD13, replicate 2): 6.8%
PI positivity (%) ([6]; 100 μM CpoBD13, replicate 3): 23%
membrane permeabilisation (PI uptake) ([6]; serum-free media, 30 min, 37°C): unable to effectively permeabilise
antifungal activity in NaCl [7]: retained antifungal activity
effect on cell viability [8]: did not affect the viability
effect on cell viability [9]: did not affect the viability
